Data on one substance can be found in PMC4200526.

The target in the assay is toluene 4-monooxygenase hydroxylase (T4moH), (TmoA-TmoB-TmoE)2, with C-terminally truncated TmoA and TmoE (UniProt Q00456).
UniProt Q00456, sequence (Q00456 1-491, chain 1 of 3): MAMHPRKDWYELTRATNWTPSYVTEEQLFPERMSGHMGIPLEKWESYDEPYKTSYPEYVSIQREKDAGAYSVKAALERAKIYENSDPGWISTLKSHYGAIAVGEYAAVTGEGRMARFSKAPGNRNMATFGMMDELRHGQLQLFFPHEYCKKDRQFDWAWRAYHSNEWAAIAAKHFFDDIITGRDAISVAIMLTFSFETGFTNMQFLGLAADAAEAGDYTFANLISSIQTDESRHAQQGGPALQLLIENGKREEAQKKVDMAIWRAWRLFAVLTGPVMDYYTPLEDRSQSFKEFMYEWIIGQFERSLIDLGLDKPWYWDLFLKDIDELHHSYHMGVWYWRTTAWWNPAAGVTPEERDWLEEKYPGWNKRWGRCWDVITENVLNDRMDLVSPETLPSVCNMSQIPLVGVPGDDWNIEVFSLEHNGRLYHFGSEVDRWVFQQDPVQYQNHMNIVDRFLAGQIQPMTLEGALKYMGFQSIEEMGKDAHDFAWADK
UniProt Q00456, sequence (Q00457 whole entry, chain 2 of 3, further chain, the tested form may be a part): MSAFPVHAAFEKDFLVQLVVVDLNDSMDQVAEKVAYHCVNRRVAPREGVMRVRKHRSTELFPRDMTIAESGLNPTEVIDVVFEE
UniProt Q00456, sequence (Q00460 1-306, chain 3 of 3, further chain): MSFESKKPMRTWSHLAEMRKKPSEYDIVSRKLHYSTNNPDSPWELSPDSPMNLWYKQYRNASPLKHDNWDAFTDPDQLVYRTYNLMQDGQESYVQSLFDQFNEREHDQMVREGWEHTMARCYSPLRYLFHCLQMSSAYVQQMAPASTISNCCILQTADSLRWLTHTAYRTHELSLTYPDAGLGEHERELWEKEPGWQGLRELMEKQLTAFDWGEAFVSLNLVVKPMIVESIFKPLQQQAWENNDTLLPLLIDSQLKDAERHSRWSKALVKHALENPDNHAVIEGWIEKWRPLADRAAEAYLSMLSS

Regarding “T4moC, Rieske-type ferredoxin of toluene 4-monooxygenase, Cys7Ser/Cys84Ala/Cys85Ala variant (used for 4P1C) (from UniProt Q00458 8-112) (natural protein)”, the apparent KM for T4moC in steady-state toluene hydroxylation (4 uM T4moH, 0.4 uM T4moF), before the increase caused by T4moD was 3 µM and the apparent KM for T4moC in steady-state toluene hydroxylation (4 uM T4moH, 0.4 uM T4moF), increased by inhibiting T4moD was found to be 16 µM.
